# Test results from patent US20170354129A1 (NATIONAL AGRICULTURE AND FOOD RESEARCH ORGANIZATION, published 2017).
# B1: single chain antibody γ+κ 5 expressed from pET-22b(+) in E. coli BL21 (DE3), refolded and purified (scFv)
# scFv: MAQVQLQQSGPGLVKPSQTLSLTCAISGDSVSSRDAAWNWIRQSPSRGLEWLGRTYYRSEWYTDYAVSLESRLTVNPDTSRNQFSLQLNSVTPEDTAVYLCARGSSWGHAPAFFDYWGQGTLVTVSSGGGGSGGGGSGGGGSDIQMTQSPSSLSASVEDRVAITCRASQSVSTYVAWYQQKPGKAPKLLISQASSLENGVPSRFSGSGSGTDFTLTISSLQPEDFATYYCQQYTTYPYTFGQGTKLEIKR
# notes: Human scFv (VH gamma - linker - V kappa) from a spleen library; detected through its His tag with anti-His-HRP; also called clone No. 5; purified single chain antibody; not shown: C-terminal His tag from pET-22b(+) (XhoI cloning)
# B2: single chain antibody γ+κ 5, pCANTAB5E clone 5 (phage presented and soluble forms) (scFv)
# scFv: B1 scFv
# notes: the phage-presented and the soluble form are kept under one id, the assay field tells which was used; not shown: C-terminal E tag from pCANTAB5E (phage form: fused to the phage coat protein)
# B3: single chain antibody γ+κ 12, pCANTAB5E clone 12 (phage presented and soluble forms) (scFv)
# scFv: MAQVQLQQSGPGLVKPSQTLSLTCDISGDSISTNGAAWNWIRQSPSRGLEWLGRTFYRSKWYNDYAVSVKSRMIINPDTSKNQFSLQLSSVTPEDTAVYYCARVACSGGTCLDGIDVWGQGTTVTVSSGGGGSGGGGSGGGGSDIVMTQSPSSLSASVGERVTITCRASQAIRNDLGWYQQKPGKAPKLLVYSASNLQSGVPSRFSGSGSGTDFTLTISSLQPEDFATYYCQQYHSYPRTFSQGTKLEIKR
# notes: not shown: C-terminal E tag from pCANTAB5E
# B4: single chain antibody γ+κ 19, pCANTAB5E clone 19 (phage presented and soluble forms) (scFv)
# scFv: MAEVQLVESGAEVKNPGASVKVSCKASGYTLTGYYMHWVRQAPGQGLEWMGGIIPMYGTPTYAPRFQGRVTFTADYSTNTVYMELRSLRSEDTAVFYCARQADSASYLDYWGQGTLVTVSSGGGGSGGGGSGGGGSDVVMTQSPGTLSLSPGERATLSCRASQSLDSSYLAWYQQKPGRAPRLLIYGASDRDTGIPDRFSGSGSGTDFTLTISRLEPEDFAVYYCQQYGRSRTFGQGTKLEIKR
# notes: as for B3
# B5: single chain antibody γ+κ 40, pCANTAB5E clone 40 (phage presented and soluble forms) (scFv)
# scFv: MAQVQLVQSGVELRKPGDSVKVSCKASGYSVNTHGMSWVRQAPGQGLEWLGRISSYIGLTKFAQKFQDRVTLTTDTSTNTAYLEMRSLKSDDTAVYFCGRDDYEYDAFDVWGQGTMVTVSSGGGGSGGGGSSGGGSEIVLTQSPATLSVSPGERATLSCRTTESVTDSQLAWYQQKPGQAPRLLIYGPSTRATGIPDRFSGSGSGTDFTLTISGLEPEDFAVYYCQQRNSWYTFGQGTKLEIKR
# notes: as for B3
# B6: single chain antibody γ+κ 96, pCANTAB5E clone 96 (phage presented and soluble forms) (scFv)
# scFv: MAEVQLVESGAEAKKPGESLKISCKGSGYSFTTNWIGWVRQLPGKGLDWMGIIYPDDSDTRYSPSFQGQVTISADKSISTAYLQWNSLKASDTAMYYCARRQWGSFDLWGQGTMVTVSSGGGGSGGGGSGGGGSEIVLTQSPATLSLSPGERATLSCRASQSVSSFLAWYQQKPGQAPRLLIYGASSRATGIPDRFSGSGSGTDFTLTINRLEPEDFAVYYCQYYGSSGTFGQGTKVEIKR
# notes: as for B3
# B7: silkworm form biotinylated sRAGE (silkworm coexpressing BirA, biotin feed, Example 19) (receptor)
# chain: GHHHHHHHHHHSSGHIDDDDKHMAQNITARIGEPLVLKCKGAPKKPPQRLEWKLNTGRTEAWKVLSPQGGGPWDSVARVLPNGSLFLPAVGIQDEGIFRCQAMNRNGKETKSNYRVRVYQIPGKPEIVDSASELTAGVPNKVGTCVSEGSYPAGTLSWHLDGKPLVPNEKGVSVKEQTRRHPETGLFTLQSELMVTPARGGDPRPTFSCSFSPGLPRHRALRTAPIQPRVWEPVPLEEVQLVVEPEGGAVAPGGTVTLTCEVPAQPSPQIHWMKDGVPLPLPPSPVLILPEIGPQDQGTYSCVATHSSHGPQESRAVSISIIEPGEEGPTAGSRSGAGTPVTAPLAGTIWKVLASEGQTVAAGEVLLILEAMKMETEIRAAQAGTVRGIAVKAGDAVAVGDTLMTLAGTKLGPEQKLISEEDLNSAVDHHHHHH
# modifications: a single biotin on the biotinylation tag; silkworm form N-linked sugar chains at two sites
# notes: also called Biotin tag sRAGE; Biotin-RAGE
# B8: E. coli form biotinylated sRAGE (Comparative Example 2) (receptor)
# chain: AQNITARIGEPLVLKCKGAPKKPPQRLEWKLNTGRTEAWKVLSPQGGGPWDSVARVLPNGSLFLPAVGIQDEGIFRCQAMNRNGKETKSNYRVRVYQIPGKPEIVDSASELTAGVPNKVGTCVSEGSYPAGTLSWHLDGKPLVPNEKGVSVKEQTRRHPETGLFTLQSELMVTPARGGDPRPTFSCSFSPGLPRHRALRTAPIQPRVWEPVPLEEVQLVVEPEGGAVAPGGTVTLTCEVPAQPSPQIHWMKDGVPLPLPPSPVLILPEIGPQDQGTYSCVATHSSHGPQESRAVSISIIEPGEEGPTAGSGLNDIFEAQKIEWHE
# notes: Not glycosylated; expressed in Origami B (DE3) together with a biotin ligase; also called E. coli form sRAGE; purified soluble biotinylated RAGE; not shown: His tag present at the N-terminus
# Key:
# [1] = target: T1, LDL (unmodified low density lipoprotein) (UniProt P04114 28-4563); assay: direct ELISA, lowest antigen amount at which detection was possible
# T1 construct: Lipoprotein particle, not a pure protein; also called LDLs; unmodified LDL
# Description: (§1) Antigen recognition activity of a purified single chain antibody was evaluated by direct ELISA. LDLs, acetylated LDLs, partially oxidized LDLs, and fully oxidized LDLs were used as antigens. 0.05 to 10 μg/ml of antigen solution was added to a polystyrene 96-well microwell plate at 100 μl/well and allowed to adsorb overnight at 4° C. The plate was washed three times with PBS (200 μl/well). Blocking buffer (0.25% BSA/PBS) was added at 200 μl/well. The mixture was left standing for 2 hours at room temperature. After the plate was washed three times with PBS (200 μl/well), 2.5 μg/ml/PBS single chain antibody was added at 100 μl/well and reacted for 1 hour at room temperature. The plate was washed five times with PBS (200 μl/well) and anti-His-HRP antibody diluted 1000-fold with blocking buffer was added at 100 μl/well and reacted for 1 hour at room temperature. After washing the plate five times with PBS (200 μl/well), 3,3′,5,5′-tetramethyl-benzidine (TMB) was added at 50 μl/well. The luminescence was examined and 150μ/well of 1N HCl was added to suspend the reaction. Subsequently, the absorbance at 450 nm for each well of the plate was measured (FIG. 11).
# (§2) The detection limit was calculated as the detection limit at the lowest concentration at which detection was possible in measured specimens at different dilution levels.
# partially oxidized LDL = target: T2, partially oxidized LDL (UniProt P04114 28-4563, oxidatively modified with copper for 4 hours at 37 C (sites not given)); assay: as above
# T2 construct: Lipoprotein particle; also called moOxLDL; moLDL
# T2 sequence (P04114 28-4563): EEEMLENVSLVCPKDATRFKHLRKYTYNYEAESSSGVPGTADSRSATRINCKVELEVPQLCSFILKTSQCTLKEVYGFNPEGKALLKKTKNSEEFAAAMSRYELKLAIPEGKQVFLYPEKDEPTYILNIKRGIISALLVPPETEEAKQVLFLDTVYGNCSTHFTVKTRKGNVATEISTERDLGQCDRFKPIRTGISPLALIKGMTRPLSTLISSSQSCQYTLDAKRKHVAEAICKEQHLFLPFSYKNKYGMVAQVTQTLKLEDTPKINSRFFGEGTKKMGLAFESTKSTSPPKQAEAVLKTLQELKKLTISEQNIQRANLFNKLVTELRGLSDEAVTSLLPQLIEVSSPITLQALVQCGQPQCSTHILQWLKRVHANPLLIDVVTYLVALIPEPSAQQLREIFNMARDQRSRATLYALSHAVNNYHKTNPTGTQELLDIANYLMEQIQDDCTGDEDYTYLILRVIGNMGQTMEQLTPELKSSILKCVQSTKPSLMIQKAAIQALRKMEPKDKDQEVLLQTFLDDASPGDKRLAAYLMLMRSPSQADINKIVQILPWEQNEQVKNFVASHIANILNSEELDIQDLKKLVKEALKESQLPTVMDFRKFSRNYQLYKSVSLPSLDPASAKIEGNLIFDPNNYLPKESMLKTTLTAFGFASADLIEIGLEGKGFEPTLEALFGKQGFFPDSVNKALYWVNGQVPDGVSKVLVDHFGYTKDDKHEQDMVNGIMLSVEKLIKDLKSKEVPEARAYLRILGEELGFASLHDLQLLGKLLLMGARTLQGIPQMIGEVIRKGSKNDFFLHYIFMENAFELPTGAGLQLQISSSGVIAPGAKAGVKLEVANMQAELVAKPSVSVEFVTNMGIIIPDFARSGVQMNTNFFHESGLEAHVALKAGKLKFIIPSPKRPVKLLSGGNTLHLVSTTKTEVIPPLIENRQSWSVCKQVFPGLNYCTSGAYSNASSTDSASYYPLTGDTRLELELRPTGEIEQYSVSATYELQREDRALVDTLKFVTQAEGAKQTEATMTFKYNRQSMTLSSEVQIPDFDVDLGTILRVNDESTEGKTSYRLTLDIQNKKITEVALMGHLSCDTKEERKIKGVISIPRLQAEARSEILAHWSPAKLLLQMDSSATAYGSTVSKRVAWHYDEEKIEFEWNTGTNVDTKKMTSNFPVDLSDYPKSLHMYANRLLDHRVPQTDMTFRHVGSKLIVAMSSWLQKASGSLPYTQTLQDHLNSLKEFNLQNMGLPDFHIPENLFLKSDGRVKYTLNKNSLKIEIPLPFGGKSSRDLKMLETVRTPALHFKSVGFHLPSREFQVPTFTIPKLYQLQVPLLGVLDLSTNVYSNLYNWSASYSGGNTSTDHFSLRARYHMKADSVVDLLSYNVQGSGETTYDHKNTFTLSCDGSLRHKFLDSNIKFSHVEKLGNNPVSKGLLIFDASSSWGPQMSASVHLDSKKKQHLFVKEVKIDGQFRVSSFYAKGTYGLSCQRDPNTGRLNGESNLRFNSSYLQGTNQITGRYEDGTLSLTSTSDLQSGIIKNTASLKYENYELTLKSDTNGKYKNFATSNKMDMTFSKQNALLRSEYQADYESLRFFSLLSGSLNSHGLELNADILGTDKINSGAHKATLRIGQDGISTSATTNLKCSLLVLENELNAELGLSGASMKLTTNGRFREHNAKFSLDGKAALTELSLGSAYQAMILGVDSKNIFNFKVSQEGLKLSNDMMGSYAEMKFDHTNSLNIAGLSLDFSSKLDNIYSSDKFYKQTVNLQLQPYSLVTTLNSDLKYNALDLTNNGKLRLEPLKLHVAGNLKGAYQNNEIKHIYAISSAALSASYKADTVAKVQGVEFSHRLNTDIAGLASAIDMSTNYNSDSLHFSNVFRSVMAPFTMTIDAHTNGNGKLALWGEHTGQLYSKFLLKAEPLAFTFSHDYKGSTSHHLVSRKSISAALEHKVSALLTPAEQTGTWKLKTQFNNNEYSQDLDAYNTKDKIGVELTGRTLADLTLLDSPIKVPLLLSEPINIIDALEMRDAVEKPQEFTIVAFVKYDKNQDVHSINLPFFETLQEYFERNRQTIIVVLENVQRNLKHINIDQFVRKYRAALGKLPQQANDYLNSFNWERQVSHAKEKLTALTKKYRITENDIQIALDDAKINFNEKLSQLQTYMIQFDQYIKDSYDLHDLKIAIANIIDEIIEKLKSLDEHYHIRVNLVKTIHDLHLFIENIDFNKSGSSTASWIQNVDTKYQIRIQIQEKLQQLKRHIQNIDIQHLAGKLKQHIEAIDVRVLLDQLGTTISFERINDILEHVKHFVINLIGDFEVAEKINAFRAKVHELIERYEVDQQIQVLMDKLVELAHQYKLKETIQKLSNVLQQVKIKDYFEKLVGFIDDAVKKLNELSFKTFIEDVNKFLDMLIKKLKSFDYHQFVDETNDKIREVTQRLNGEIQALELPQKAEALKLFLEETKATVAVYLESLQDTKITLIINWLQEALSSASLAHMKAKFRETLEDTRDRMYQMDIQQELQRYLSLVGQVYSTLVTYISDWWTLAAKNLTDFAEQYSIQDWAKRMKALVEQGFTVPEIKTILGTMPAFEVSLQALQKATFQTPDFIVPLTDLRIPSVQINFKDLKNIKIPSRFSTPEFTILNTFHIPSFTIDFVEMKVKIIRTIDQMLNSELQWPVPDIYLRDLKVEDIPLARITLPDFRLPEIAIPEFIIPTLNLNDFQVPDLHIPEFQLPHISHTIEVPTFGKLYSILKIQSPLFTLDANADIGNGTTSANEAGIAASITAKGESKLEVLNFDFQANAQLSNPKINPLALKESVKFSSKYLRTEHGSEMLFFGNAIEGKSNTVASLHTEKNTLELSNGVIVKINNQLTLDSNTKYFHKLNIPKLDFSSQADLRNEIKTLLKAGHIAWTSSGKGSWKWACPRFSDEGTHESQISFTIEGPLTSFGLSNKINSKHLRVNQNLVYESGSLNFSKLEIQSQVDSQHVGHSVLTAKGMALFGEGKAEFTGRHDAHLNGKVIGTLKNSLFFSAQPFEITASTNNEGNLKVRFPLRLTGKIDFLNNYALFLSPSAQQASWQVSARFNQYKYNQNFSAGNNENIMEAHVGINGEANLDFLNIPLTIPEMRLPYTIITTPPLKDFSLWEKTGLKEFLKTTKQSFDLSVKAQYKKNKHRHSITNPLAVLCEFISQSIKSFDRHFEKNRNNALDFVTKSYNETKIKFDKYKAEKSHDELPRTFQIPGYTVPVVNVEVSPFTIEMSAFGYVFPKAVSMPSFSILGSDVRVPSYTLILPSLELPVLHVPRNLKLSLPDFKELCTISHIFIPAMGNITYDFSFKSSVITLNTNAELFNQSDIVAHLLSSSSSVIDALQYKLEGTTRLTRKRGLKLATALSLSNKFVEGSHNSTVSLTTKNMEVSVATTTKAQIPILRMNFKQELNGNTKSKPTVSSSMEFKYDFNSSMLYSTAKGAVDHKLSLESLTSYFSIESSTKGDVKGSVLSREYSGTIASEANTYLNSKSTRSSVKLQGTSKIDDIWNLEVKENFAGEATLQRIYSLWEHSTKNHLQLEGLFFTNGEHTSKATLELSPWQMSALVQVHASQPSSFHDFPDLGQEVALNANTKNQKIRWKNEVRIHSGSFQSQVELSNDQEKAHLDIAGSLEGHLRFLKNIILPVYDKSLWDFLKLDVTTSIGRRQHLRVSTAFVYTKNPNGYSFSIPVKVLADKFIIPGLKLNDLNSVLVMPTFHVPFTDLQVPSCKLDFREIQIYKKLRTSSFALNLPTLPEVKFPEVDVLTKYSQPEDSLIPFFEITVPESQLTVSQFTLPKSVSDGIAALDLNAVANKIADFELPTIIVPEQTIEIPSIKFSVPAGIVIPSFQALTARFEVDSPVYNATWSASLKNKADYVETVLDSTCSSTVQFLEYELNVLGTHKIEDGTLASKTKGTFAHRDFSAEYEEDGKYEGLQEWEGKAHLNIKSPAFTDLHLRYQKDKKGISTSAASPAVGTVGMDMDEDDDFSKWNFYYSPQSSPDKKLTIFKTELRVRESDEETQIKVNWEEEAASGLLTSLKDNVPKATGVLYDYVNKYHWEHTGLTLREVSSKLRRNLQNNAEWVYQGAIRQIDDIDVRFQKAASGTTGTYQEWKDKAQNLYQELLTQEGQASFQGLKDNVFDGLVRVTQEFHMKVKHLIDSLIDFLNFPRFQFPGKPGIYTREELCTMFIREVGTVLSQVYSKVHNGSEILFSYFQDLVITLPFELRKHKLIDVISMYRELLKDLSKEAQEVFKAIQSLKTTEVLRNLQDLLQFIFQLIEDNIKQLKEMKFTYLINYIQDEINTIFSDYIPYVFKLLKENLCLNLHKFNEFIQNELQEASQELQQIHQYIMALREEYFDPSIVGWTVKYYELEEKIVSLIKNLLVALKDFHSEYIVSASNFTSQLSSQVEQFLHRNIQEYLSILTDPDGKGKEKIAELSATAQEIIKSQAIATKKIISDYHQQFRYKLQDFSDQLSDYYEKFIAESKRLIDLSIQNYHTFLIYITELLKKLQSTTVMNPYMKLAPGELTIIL
# Description: as §1, §2
# fully oxidized LDL [2] = target: T3, fully oxidized LDL (UniProt P04114 28-4563, oxidatively modified with copper for 20 hours at 37 C (sites not given)); assay: as above
# T3 construct: Lipoprotein particle; also called fuOxLDL; FoxLDL
# T3 sequence (P04114 28-4563): as above
# Description: as §1, §2
# acetylated LDL = target: T4, acetylated LDL (UniProt P04114 28-4563, acetylated (sites not given)); assay: as above
# T4 construct: Lipoprotein particle; also called AcLDL; Ac LDLs
# Description: as §1, §2
# fully oxidized LDL [3] = target: T3, fully oxidized LDL; assay: phage ELISA on oxidized LDL
# [4] = target: T5, F-AGE (AGEs prepared by fructose treatment of BSA) (bovine, UniProt P02769 25-607, glycated by fructose, 37 C for 12 weeks (sites not given)); assay: SPR single cycle kinetics, biotinylated sRAGE on a streptavidin (SA) chip, F-AGE as analyte
# T5 construct: also called F-AGEs; fructose treated BSA
# T5 sequence (P02769 25-607 limits assumed): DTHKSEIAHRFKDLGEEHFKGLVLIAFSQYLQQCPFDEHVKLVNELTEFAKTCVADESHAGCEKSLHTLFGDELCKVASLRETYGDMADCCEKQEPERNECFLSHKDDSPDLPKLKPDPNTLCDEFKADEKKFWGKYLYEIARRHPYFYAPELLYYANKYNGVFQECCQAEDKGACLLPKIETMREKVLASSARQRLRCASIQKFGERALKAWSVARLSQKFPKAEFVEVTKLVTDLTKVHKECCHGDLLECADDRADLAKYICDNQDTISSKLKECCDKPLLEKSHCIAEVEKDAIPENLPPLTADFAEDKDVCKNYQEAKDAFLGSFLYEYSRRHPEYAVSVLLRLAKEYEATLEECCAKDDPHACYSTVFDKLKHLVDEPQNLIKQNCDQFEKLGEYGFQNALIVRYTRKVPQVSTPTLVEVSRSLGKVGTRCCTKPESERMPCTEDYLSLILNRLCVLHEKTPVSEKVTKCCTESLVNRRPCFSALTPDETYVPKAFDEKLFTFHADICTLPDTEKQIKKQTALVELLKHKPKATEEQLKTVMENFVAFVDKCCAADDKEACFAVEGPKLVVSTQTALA
binder,measurement,setting,value
B1,detection limit,[1],5 ng/100 µl well
same,detection limit,partially oxidized LDL,10 ng/100 µl well
same,detection limit,fully oxidized LDL [2],20 ng/100 µl well
same,detection limit,acetylated LDL,10 ng/100 µl well
B2,A450,fully oxidized LDL [3],≥ 0.6 A450
B3,A450,fully oxidized LDL [3],≥ 0.6 A450
B4,A450,fully oxidized LDL [3],≥ 0.6 A450
B5,A450,fully oxidized LDL [3],≥ 0.6 A450
B6,A450,fully oxidized LDL [3],≥ 0.6 A450
B7,Kd,[4],220 nM
B8,Kd,[4],280 nM
